Patent US9327022 (NATIONAL RESEARCH COUNCIL OF CANADA, dated 2016)

What was measured:
bovine serum albumin [1] = biological target: T1, bovine serum albumin (bovine, UniProt P02769 25-607); assay: SPR (Biacore 3000), immobilized BSA
T1 construct: also called BSA; Bovine albumin
Protocol: (§1) 1700 RUs of BSA (Sigma) were immobilized on research grad CM5-sensorchip (BIACORE). Ethanolamin blocked surface was used as a reference. Immobilizations were carried out at the protein concentrations of 50 µg/ml in 10 mM acetate pH 4.5 using amin coupling kit supplied by the manufacturer. Antibodies were passed through Superdex 75™ (GE Healthcare) column to separate monomer prior to BIACORE analysis.
(§2) In all instances, analyses were carried out at 25 C in HBS-E buffer (10 mM HEPES, 150 mM NaCl, and 3 mM EDTA, pH 7.4) supplemented with 0.005% surfactant P20 at a flow rate of 20 µl/min. The surfaces were regenerated with 100 mM HCl (3 seconds). Data were analyzed with BIAevaluation 4.1 software.

bovine serum albumin [2] = biological target: T1, bovine serum albumin; assay: SPR (Biacore 3000), immobilized BSA; remark: listed apart in the source
Protocol: as §1, §2

human serum albumin [3] = biological target: T2, human serum albumin (human, UniProt P02768 25-609); assay: SPR (Biacore 3000), immobilized albumin; lower bound of the printed KD range
T2 construct: also called Human albumin

bovine serum albumin [4] = biological target: T1, bovine serum albumin; assay: SPR (Biacore 3000), immobilized BSA, extended dissociation
Protocol: as §1, §2
(§3) Each binding was performed three times, and the obtained data were reproducible.

murine serum albumin = biological target: T3, murine serum albumin (murine, UniProt P07724 25-608); assay: SPR (Biacore 3000), immobilized albumin
T3 construct: also called Murine albumin
Protocol: as §1, §2

sheep serum albumin = biological target: T4, sheep serum albumin (sheep, UniProt P14639 25-607); assay: SPR (Biacore 3000), immobilized albumin
T4 construct: also called Sheep albumin
Protocol: as §1, §2

guinea pig serum albumin = biological target: T5, guinea pig serum albumin (guinea pig); assay: SPR (Biacore 3000), immobilized albumin
T5 construct: also called Guinea pig albumin
Protocol: as §1, §2

canine serum albumin = biological target: T6, canine serum albumin (canine, UniProt P49822 25-608); assay: SPR (Biacore 3000), immobilized albumin
T6 construct: also called Canine albumin
Protocol: as §1, §2

porcine serum albumin = biological target: T7, porcine serum albumin (porcine, UniProt P08835 25-607); assay: SPR (Biacore 3000), immobilized albumin
T7 construct: also called Porcine albumin
Protocol: as §1, §2

bovine serum albumin [5] = biological target: T1, bovine serum albumin; assay: SPR (Biacore 3000), immobilized albumin
Protocol: as §1, §2

goat serum albumin = biological target: T8, goat serum albumin (goat); assay: SPR (Biacore 3000), immobilized albumin
T8 construct: also called Goat albumin
T8 sequence (P85295 whole entry, looked up): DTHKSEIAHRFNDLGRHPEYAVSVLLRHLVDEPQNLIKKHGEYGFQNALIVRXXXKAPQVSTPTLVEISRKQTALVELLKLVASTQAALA
Protocol: as §1, §2

bovine serum albumin [6] = biological target: T1, bovine serum albumin; assay: SPR (Biacore 3000), immobilized BSA, 4 h dissociation time
Protocol: as §1, §2, §3

human serum albumin [7] = biological target: T2, human serum albumin; assay: SPR (Biacore 3000), immobilized albumin; upper bound of the printed KD range

T7 sequence (P08835 25-607 limits assumed): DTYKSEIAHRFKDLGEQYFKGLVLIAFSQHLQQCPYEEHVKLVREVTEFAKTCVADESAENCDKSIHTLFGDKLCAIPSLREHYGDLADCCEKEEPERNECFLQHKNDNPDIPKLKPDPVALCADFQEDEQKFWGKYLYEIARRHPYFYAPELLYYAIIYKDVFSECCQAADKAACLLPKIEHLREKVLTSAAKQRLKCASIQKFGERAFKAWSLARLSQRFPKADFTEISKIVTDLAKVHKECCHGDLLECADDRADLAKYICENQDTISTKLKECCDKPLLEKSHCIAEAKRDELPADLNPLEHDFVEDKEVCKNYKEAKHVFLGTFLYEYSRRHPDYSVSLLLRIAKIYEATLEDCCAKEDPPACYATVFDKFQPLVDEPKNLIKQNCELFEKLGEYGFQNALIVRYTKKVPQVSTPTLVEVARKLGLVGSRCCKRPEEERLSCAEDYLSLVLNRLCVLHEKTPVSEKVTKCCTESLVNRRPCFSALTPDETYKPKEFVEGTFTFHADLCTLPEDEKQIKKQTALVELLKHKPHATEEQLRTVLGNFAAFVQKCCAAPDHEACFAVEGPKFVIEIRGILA
T1 sequence (P02769 25-607 limits assumed): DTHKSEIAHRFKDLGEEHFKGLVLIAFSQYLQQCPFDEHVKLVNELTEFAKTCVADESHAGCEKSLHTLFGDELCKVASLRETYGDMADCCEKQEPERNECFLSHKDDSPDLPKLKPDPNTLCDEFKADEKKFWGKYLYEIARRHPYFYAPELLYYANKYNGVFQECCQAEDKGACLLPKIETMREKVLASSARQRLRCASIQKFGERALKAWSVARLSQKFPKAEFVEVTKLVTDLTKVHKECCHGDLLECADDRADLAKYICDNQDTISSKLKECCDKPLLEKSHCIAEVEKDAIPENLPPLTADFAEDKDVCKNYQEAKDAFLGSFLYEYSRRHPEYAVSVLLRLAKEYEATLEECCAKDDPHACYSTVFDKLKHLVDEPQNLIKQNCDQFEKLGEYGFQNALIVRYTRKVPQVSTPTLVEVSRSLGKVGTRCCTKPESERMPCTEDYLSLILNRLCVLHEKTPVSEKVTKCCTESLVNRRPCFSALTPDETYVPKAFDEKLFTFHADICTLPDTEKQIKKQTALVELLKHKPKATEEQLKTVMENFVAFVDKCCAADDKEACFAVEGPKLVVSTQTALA
T2 sequence (P02768 25-609 limits assumed): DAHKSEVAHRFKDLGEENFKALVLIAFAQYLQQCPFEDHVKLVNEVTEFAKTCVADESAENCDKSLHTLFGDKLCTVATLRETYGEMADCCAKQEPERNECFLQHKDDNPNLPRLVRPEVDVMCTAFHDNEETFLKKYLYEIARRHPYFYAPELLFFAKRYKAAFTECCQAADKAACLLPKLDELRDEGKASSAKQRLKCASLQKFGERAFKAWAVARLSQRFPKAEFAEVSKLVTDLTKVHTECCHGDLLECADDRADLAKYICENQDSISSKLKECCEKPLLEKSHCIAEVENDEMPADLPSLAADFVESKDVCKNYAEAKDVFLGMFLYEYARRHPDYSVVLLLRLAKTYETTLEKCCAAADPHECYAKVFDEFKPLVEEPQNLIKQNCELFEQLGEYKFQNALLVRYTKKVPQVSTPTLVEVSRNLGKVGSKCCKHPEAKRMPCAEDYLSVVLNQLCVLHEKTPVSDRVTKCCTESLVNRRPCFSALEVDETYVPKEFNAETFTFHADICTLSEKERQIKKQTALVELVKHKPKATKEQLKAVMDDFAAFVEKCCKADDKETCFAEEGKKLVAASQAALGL
T4 sequence (P14639 25-607 limits assumed): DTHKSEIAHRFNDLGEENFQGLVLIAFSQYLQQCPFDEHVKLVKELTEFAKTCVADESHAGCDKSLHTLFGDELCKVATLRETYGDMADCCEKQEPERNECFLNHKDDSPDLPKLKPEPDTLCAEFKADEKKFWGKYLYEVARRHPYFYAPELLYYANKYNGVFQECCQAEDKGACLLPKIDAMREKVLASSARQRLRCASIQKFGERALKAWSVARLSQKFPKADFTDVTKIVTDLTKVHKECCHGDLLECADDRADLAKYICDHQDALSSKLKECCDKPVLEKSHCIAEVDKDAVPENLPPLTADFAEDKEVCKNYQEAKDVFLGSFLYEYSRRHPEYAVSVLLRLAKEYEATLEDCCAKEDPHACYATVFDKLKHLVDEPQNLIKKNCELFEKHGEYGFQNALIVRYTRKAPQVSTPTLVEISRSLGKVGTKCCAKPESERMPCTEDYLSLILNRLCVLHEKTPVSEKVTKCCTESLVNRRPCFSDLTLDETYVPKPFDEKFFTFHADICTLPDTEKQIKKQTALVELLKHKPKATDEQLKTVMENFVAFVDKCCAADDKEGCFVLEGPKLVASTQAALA
T6 sequence (P49822 25-608 limits assumed): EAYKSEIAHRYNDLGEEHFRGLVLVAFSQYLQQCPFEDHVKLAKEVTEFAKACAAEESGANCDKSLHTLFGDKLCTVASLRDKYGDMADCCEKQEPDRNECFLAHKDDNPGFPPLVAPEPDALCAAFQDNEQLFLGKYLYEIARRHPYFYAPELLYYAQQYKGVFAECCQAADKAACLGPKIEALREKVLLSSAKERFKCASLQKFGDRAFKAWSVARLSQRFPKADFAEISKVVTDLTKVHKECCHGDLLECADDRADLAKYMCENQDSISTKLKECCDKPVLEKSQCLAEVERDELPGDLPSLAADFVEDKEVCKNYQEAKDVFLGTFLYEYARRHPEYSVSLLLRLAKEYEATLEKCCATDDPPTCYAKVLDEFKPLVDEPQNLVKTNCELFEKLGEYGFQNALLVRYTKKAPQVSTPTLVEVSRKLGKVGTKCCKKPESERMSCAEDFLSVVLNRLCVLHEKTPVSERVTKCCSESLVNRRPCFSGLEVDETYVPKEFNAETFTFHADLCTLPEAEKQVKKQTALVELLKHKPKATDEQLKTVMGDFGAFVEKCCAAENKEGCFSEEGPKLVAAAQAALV

B1: BSA8 (VHH)
VHH: QVKLEESGGGLAQAGGSLRLSCAASERTFIRYTIGWFRQAPGKEREFVGRVNWSGGDTYYADSVKGRFTISRDNAKTTVTLQMSSLKPEDTAVYSCAASPKWSEIPREYIYWGPGTQVTVSS
notes: also called sdAb BSA8; pBSA8 product
- Kd (bovine serum albumin [1]): ~100 nM
- koff (bovine serum albumin [2]): 0.005 s⁻¹

B2: BSA12 (VHH)
VHH: QVKLEESGGGLVQVGDSLRLSCAASGRTFSNYTMAWFRQFPGKEREFVAVVSRGGGATDYADSVKGRFTISRDNAKNTMYLQMNSLKTDTAVYYCAAGTDLSYYYSTKKWAYWGQGTQVTVSS
notes: also called sdAb BSA12; pBSA12 product
- Kd (human serum albumin [3]): > 10000 nM
- Kd (bovine serum albumin [1]): 0.004 nM
- kon (bovine serum albumin [1]): 2.5e+06 M⁻¹ s⁻¹
- koff (bovine serum albumin [4]): 1e-05 s⁻¹
- Kd (murine serum albumin): 59 nM
- koff (murine serum albumin): 0.16 s⁻¹
- kon (murine serum albumin): 2.7e+06 M⁻¹ s⁻¹
- Kd (sheep serum albumin): 1000 nM
- Kd (guinea pig serum albumin): 730 nM
- koff (guinea pig serum albumin): 0.6 s⁻¹
- kon (guinea pig serum albumin): 830000 M⁻¹ s⁻¹
- Kd (canine serum albumin): 1400 nM
- Kd (porcine serum albumin): 380 nM
- koff (porcine serum albumin): 0.22 s⁻¹
- kon (porcine serum albumin): 680000 M⁻¹ s⁻¹
- Kd (bovine serum albumin [5]): 0.0036 nM
- koff (bovine serum albumin [5]): 9e-06 s⁻¹
- kon (bovine serum albumin [5]): 2.5e+06 M⁻¹ s⁻¹
- Kd (goat serum albumin): 240 nM
- koff (goat serum albumin): 0.3 s⁻¹
- kon (goat serum albumin): 1.2e+06 M⁻¹ s⁻¹
- koff (bovine serum albumin [6]): 9e-06 s⁻¹
- Kd (human serum albumin [7]): < 500000 nM

B3: BSA16 (VHH)
VHH: QVKLEESGGGLVQAGGSLRLSCAPSGRTFRTWRMGWFRQAPGKEREFVAAINLNTGNTYYVDSVKGRFTISGDYAKNTLYLQMNSLKPEDTAVYFCAARSPDSDYVPLSSIDYQYWGQGTQVTVSS
notes: also called sdAb BSA16; pBSA16 product
- Kd (bovine serum albumin [1]): 280 nM
- koff (bovine serum albumin [1]): 0.27 s⁻¹
- kon (bovine serum albumin [1]): 1e+06 M⁻¹ s⁻¹
